Measured values as given in patent US9944717 (BROTEIO PHARMA B V, dated 2018).
One block for each binder: values may come before it.

Assays:
[1] = target: T1, C1s-cleaved glycosylated recombinant human C2 (human, UniProt P06681 21-243; P06681 244-752, N-linked glycans); assay: ELISA, C1s-cleaved C2 coated at 200 ng per well
T1 construct: Cleavage at the Arg243-|-Lys244 bond as printed; also called C1s-cleaved recombinant human C2; C1s-cleaved C2; not shown: N-terminal his-tag
T1 sequence 1: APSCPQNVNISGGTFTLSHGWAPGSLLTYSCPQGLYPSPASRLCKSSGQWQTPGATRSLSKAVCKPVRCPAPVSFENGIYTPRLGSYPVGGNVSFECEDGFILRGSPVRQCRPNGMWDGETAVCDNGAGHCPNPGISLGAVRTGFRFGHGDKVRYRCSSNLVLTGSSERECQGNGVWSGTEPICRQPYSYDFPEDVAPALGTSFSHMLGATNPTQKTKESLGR
T1 sequence 2: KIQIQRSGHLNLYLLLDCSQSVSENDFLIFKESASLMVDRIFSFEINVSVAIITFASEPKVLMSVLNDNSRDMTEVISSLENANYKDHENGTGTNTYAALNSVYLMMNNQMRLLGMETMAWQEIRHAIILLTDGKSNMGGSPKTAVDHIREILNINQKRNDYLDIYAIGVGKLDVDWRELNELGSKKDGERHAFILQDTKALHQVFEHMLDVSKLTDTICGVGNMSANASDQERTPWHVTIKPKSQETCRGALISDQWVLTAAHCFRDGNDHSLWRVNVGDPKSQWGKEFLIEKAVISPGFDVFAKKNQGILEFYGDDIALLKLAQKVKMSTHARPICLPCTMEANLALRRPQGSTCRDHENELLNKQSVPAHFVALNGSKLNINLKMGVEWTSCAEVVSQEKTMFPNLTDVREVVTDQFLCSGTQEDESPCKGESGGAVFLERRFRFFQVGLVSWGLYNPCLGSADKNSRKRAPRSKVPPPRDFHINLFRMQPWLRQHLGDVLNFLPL

[2] = target: T2, glycosylated recombinant human complement C2 with a N-terminal his-tag (human, UniProt P06681 21-752, N-linked glycans); assay: ELISA, C2 coated at 25 or 200 ng per well
T2 construct: also called recombinant human C2; wild-type recombinant C2; not shown: N-terminal his-tag
T2 sequence: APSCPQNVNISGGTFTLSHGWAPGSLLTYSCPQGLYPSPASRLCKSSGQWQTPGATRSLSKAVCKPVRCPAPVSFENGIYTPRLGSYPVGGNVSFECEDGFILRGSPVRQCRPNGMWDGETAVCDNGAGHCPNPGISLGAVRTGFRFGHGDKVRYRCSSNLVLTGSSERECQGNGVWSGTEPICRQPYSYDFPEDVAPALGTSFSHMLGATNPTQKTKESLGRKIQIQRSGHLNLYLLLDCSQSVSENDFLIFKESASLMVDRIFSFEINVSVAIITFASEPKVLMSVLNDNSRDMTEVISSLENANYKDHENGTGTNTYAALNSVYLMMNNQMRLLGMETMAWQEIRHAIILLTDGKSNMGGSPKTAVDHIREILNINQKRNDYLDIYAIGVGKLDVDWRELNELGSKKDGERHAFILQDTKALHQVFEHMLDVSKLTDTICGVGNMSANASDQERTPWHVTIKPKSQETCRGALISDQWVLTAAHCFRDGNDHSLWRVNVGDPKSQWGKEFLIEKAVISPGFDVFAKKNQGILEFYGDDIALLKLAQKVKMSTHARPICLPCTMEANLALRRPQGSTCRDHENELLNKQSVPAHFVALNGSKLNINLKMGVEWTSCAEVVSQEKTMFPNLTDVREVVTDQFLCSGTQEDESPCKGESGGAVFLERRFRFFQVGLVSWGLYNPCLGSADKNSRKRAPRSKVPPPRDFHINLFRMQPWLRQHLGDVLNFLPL
Description: Chimeric mouse-human antibodies (human IgG1κ version for anti-C2-32, and human IgG4κ version for anti-C2-5F2.4, -13, -32, -35 and -60) were expressed using FreeStyle™ MAX CHO (CHO-S cells) Expression System (Invitrogen). Expressed chimeric mouse-human anti-human complement C2 antibodies were purified using affinity chromatography protein A columns (GE Healthcare). Using the same ELISA procedure as described in Example 3, all anti-C2 chimeric mAbs were tested for binding to high (200 ng per well) and low (25 ng per well) recombinant C2. Briefly, ELISA plates (Corning) were coated with the indicated amount of C2 in PBS overnight at 4° C. After extensive washing in PBS/0.05% Tween 20, plates were blocked with PBS/0.05% Tween 20/1% BSA fraction V (Roche) for 1 hour at RT. […] After extensive washing in PBS/0.05% Tween 20, binding of antibodies was determined with 1:5000 diluted horseradish peroxidase-conjugated goat anti-human IgG-specific (heavy and light chains) antibodies (Jackson ImmunoResearch) for 1 hour at RT, followed by a ready-to-use solution of TMB substrate (Invitrogen) for colorimetric detection. After adding 1 M H_2SO_4, optical densities were measured at a wavelength of 450 nm (reference wavelength of 655 nm) using a microplate reader (BioRad).

[3] = target: T2, glycosylated recombinant human …; assay: ELISA, C2 coated at 200 ng per well
[4] = target: T3, glycosylated recombinant human subcomponent C2a (≈70 kDa) (human, UniProt P06681 244-752, N-linked glycans); assay: Western blot of C1s-cleaved C2, non-reducing, mAb at 200 ng/mL
T3 construct: Larger fragment of C1s-cleaved recombinant C2; Start 244 follows from the printed cleavage site; also called purified C2a; recombinant human C2a
T3 sequence: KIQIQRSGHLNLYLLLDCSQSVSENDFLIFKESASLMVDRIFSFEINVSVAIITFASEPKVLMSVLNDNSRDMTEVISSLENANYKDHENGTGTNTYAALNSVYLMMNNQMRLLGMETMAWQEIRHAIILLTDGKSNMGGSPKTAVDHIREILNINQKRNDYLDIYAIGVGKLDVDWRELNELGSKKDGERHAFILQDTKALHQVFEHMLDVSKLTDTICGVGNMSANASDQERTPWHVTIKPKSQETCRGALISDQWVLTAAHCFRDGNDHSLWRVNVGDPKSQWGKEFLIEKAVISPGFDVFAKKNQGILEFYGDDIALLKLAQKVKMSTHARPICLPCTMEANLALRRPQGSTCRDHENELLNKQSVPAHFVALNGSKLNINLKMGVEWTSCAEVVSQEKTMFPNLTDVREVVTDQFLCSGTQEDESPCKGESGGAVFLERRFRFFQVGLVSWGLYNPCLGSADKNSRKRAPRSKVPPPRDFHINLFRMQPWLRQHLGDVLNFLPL
Description: (a). Mapping of Epitopes for mAbs Anti-C2-13, -32, -35, -60 and -5F2.4 on Glycosylated Recombinant Human Subcomponents C2a and C2b with Western Blotting Glycosylated recombinant human C2 (range 125-500 ng/lane, see FIG. 9; U-protein Express) or C1s-cleaved glycosylated recombinant human C2 (range 62.5-1000 ng/lane, see FIG. 9; for C2 cleavage procedure, see Example 1(b)) were electrophorized using 4-12% Tris-Bis gels and MOPS running buffer (Invitrogen) under non-reducing conditions in pre-cast SDS-PAGE (NuPage® Novex® system). Then, the C2 proteins were electro-blotted onto a polyvinylidene fluoride (PDVF) transfer membrane (Millipore). After blocking with PBS/0.05% Tween 20/1% BSA fraction V (Roche) for 20 min at RT, PDVF membranes were incubated with anti-C2 mAbs anti-C2-C2-5F2.4 (100 ng/mL), anti-C2-13 (200 ng/mL), anti-C2-32 (200 ng/mL), anti-C2-35 (100 ng/mL) and anti-C2-60 (200 ng/mL) for 1 hour at RT. After extensive washing in PBS/0.05% Tween 20, binding of anti-C2 mAbs was determined with 1:10,000 diluted horseradish peroxidase-conjugated goat anti-mouse Fcγ-specific antibodies (Jackson ImmunoResearch) for 1 hour at RT, followed by a ready-to-use solution of TMB substrate (Sigma) for colorimetric detection.

[5] = target: T2, glycosylated recombinant human …; assay: ELISA, recombinant human C2 immobilized at 2 µg/ml
Description: Chimeric mouse-human antibodies (human IgG1κ version for anti-C2-32, and human IgG4κ version for anti-C2-5F2.4, -13, -32, -35 and -60) were expressed using FreeStyle™ MAX CHO (CHO-S cells) Expression System (Invitrogen). Expressed chimeric mouse-human anti-human complement C2 antibodies were purified using affinity chromatography protein A columns (GE Healthcare). Using the same ELISA procedure as described in Example 3, all anti-C2 chimeric mAbs were tested for binding to high (200 ng per well) and low (25 ng per well) recombinant C2. Briefly, ELISA plates (Corning) were coated with the indicated amount of C2 in PBS overnight at 4° C. After extensive washing in PBS/0.05% Tween 20, plates were blocked with PBS/0.05% Tween 20/1% BSA fraction V (Roche) for 1 hour at RT. Subsequently, plates were incubated with 0, 0.00002-20.0 (10-fold dilution steps in block buffer) μg/mL protein A-purified chimeric mouse-human IgG1κ and/or IgG4κ anti-C2-5F2.4, -13, -32, -35 and -60 for 1 hour at RT. After extensive washing in PBS/0.05% Tween 20, binding of antibodies was determined with 1:5000 diluted horseradish peroxidase-conjugated goat anti-human IgG-specific (heavy and light chains) antibodies (Jackson ImmunoResearch) for 1 hour at RT, followed by a ready-to-use solution of TMB substrate (Invitrogen) for colorimetric detection. After adding 1 M H_2SO_4, optical densities were measured at a wavelength of 450 nm (reference wavelength of 655 nm) using a microplate reader (BioRad).
Binding of humanized anti-C2-5F2.4 mAbs versions VL3VH3, VL4VH3, VL3VH4, and VL4VH4 to C2 was assessed by ELISA like described above in Example 12 (recombinant human C2 was immobilized to plates at 2 µg/ml).

B1: mouse anti-human complement C2 antibody anti-C2-5F2.4 (mIgG2aκ) (antibody, V domains shown)
VH: EVQLQQSGAELVKPGASVKISCKASGYTFTDYNMDWVKQSHGKSLEWIGDINPNYESTGYNQKFKGKATLTVDKSSSTAYMELRSLTSEDTAVYYCAREDDHDAFAYWGQGTLVTVSA
VL: DNVLTQSPASVVVSLGQRATISCRASKSVRTSGYNYMHWYQQKPGQPPKLLIYLASNLKSGVPARFSGSGSGTDFTLNIHPVEEADAATYYCQHSRELPYTFGGGTKLEIKR
notes: also called mAb 5F2.4
binding result [1]: binds

B2: chimeric mouse-human IgG4κ anti-human complement C2-5F2.4 (antibody, V domains shown)
VH: EVQLQQSGAELVKPGASVKISCKASGYTFTDYNMDWVKQSHGKSLEWIGDINPNYESTGYNQKFKGKATLTVDKSSSTAYMELRSLTSEDTAVYYCAREDDHDAFAYWGQGTLVTVSA
VL: DIVLTQSPASVVVSLGQRATISCRASKSVRTSGYNYMHWYQQKPGQPPKLLIYLASNLKSGVPARFSGSGSGTDFTLNIHPVEEADAATYYCQHSRELPYTFGGGTKLEIKR
notes: Stabilized human IgG4 / human κ, expressed in CHO-S cells; also called chimeric anti-C2-5F2.4; chuIgG4κ anti-C2-5F2.4
binding result [2]: binds

B3: mouse anti-human complement C2 antibody anti-C2-60 (mIgG1κ) (antibody, V domains shown)
VH: QVALKESGPGILQPSQTLSLTCSFSGFSLSTSNMGVGWIRQPSGKGLEWLAHIWWDDDKRYNPALKSRLTISKDTSSNQVFLKIASVDTADTATYFCARIGRPTMITTWYLDVWGAGTTVTVSS
VL: DIQMTQSPASLSVSVGETVTITCRASENIYSNLAWYQQKQGKSPQLLVYAATKLADGVPSRFSGSGSGTQYSLKINSLQSEDFGNYYCQHFWNTPYTFGGGTKLEIKR
notes: Hybridoma antibody, murine IgG1κ; also called antibody 60; hybridoma 60
binding result [3]: binds | binding result [1]: binds | binding result [4]: binds

B5: humanized IgG4/kappa anti-human complement C2-5F2.4 version VL3VH3 (antibody)
heavy: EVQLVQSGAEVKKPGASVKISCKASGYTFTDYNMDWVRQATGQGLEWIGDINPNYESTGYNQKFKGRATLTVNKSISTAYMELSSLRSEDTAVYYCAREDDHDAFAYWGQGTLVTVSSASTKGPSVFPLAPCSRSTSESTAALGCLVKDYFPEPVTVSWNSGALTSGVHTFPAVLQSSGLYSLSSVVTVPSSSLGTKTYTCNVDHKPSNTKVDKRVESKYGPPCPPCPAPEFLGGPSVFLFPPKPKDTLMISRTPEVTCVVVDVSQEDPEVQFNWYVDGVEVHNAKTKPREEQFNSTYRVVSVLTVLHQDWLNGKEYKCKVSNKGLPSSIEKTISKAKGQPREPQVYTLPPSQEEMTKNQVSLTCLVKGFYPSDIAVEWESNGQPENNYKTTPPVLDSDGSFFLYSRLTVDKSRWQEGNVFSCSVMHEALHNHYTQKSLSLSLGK
light: DNVLTQSPDSLAVSLGERATISCRASKSVRTSGYNYMHWYQQKPGQPPKLLIYLASNLKSGVPDRFSGSGSGTDFTLTISSLQAEDAATYYCQHSRELPYTFGQGTKLEIKRTVAAPSVFIFPPSDEQLKSGTASVVCLLNNFYPREAKVQWKVDNALQSGNSQESVTEQDSKDSTYSLSSTLTLSKADYEKHKVYACEVTHQGLSSPVTKSFNRGEC
notes: Stabilized human IgG4, κ; expressed with the FreeStyle 293 system
binding result [5]: binds

Further lines, results first:

binding result [2]: binds
B4: chimeric mouse-human IgG4κ anti-human complement C2-60 (antibody, V domains shown)
VH: QVQLQQSGPGILQPSQTLSLTCSFSGFSLSTSNMGVGWIRQPSGKGLEWLAHIWWDDDKRYNPALKSRLTISKDTSSNQVFLKIASVDTADTATYFCARIGRPTMITTWYLDVWGAGTTVTVSS
VL: DIQMTQSPASLSVSVGETVTITCRASENIYSNLAWYQQKQGKSPQLLVYAATKLADGVPSRFSGSGSGTQYSLKINSLQSEDFGNYYCQHFWNTPYTFGGGTKLEIKR
notes: Stabilized human IgG4 / human κ, expressed in CHO-S cells; also called chimeric anti-C2-60; chuIgG4κ anti-C2-60

binding result [5]: binds
B6: humanized IgG4/kappa anti-human complement C2-5F2.4 version VL4VH3 (antibody)
heavy: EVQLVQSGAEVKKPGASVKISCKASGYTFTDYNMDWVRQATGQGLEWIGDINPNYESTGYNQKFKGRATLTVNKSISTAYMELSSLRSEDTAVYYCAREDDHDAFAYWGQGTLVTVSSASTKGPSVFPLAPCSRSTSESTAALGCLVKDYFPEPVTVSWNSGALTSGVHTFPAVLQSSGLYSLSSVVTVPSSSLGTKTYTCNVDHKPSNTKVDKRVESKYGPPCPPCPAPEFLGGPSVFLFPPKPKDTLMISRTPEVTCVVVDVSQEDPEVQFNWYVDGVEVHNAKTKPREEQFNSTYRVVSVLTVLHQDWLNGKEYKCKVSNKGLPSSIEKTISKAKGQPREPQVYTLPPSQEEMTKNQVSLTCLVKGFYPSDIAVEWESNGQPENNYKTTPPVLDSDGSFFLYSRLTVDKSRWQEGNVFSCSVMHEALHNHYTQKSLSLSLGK
light: DNVLTQSPDSLAVSLGERATINCRASKSVRTSGYNYMHWYQQKPGQPPKLLIYLASNLKSGVPDRFSGSGSGTDFTLTISSLQAEDAATYYCQHSRELPYTFGQGTKLEIKRTVAAPSVFIFPPSDEQLKSGTASVVCLLNNFYPREAKVQWKVDNALQSGNSQESVTEQDSKDSTYSLSSTLTLSKADYEKHKVYACEVTHQGLSSPVTKSFNRGEC
notes: as for B5

binding result [5]: binds
B7: humanized IgG4/kappa anti-human complement C2-5F2.4 version VL4VH4 (antibody)
heavy: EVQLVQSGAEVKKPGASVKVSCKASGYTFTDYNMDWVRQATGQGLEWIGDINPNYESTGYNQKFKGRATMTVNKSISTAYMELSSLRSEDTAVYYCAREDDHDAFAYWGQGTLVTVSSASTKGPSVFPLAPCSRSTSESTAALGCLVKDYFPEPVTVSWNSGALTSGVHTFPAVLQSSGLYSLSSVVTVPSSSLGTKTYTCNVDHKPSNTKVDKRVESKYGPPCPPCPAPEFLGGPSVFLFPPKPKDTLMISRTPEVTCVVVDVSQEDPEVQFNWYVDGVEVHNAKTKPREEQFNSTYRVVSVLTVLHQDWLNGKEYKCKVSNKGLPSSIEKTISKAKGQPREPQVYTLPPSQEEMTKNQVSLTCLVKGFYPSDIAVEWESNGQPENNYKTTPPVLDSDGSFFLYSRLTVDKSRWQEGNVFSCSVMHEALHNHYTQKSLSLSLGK
light: DNVLTQSPDSLAVSLGERATINCRASKSVRTSGYNYMHWYQQKPGQPPKLLIYLASNLKSGVPDRFSGSGSGTDFTLTISSLQAEDAATYYCQHSRELPYTFGQGTKLEIKRTVAAPSVFIFPPSDEQLKSGTASVVCLLNNFYPREAKVQWKVDNALQSGNSQESVTEQDSKDSTYSLSSTLTLSKADYEKHKVYACEVTHQGLSSPVTKSFNRGEC
notes: as for B5

binding result [5]: binds
B8: humanized IgG4/kappa anti-human complement C2-5F2.4 version VL3VH4 (antibody)
heavy: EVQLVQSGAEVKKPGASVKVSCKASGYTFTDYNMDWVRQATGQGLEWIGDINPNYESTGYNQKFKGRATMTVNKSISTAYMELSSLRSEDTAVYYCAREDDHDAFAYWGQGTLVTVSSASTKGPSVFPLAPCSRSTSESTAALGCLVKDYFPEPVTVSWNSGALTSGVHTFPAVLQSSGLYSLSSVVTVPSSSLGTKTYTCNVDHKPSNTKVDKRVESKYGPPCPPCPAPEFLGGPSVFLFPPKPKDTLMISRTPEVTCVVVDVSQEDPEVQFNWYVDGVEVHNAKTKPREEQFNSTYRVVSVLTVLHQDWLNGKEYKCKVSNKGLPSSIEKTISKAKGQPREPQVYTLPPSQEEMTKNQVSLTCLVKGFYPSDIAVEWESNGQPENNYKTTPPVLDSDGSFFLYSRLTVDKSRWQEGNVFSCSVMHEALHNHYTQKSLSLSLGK
light: DNVLTQSPDSLAVSLGERATISCRASKSVRTSGYNYMHWYQQKPGQPPKLLIYLASNLKSGVPDRFSGSGSGTDFTLTISSLQAEDAATYYCQHSRELPYTFGQGTKLEIKRTVAAPSVFIFPPSDEQLKSGTASVVCLLNNFYPREAKVQWKVDNALQSGNSQESVTEQDSKDSTYSLSSTLTLSKADYEKHKVYACEVTHQGLSSPVTKSFNRGEC
notes: as for B5
